Assay results: paper doi:10.1101/2024.04.26.591257 (bioRxiv, 2024)

T1: TPL-mV (TOPLESS fused to mVenus) (Arabidopsis thaliana, UniProt Q94AI7 1-1131)
T1 sequence (looked up): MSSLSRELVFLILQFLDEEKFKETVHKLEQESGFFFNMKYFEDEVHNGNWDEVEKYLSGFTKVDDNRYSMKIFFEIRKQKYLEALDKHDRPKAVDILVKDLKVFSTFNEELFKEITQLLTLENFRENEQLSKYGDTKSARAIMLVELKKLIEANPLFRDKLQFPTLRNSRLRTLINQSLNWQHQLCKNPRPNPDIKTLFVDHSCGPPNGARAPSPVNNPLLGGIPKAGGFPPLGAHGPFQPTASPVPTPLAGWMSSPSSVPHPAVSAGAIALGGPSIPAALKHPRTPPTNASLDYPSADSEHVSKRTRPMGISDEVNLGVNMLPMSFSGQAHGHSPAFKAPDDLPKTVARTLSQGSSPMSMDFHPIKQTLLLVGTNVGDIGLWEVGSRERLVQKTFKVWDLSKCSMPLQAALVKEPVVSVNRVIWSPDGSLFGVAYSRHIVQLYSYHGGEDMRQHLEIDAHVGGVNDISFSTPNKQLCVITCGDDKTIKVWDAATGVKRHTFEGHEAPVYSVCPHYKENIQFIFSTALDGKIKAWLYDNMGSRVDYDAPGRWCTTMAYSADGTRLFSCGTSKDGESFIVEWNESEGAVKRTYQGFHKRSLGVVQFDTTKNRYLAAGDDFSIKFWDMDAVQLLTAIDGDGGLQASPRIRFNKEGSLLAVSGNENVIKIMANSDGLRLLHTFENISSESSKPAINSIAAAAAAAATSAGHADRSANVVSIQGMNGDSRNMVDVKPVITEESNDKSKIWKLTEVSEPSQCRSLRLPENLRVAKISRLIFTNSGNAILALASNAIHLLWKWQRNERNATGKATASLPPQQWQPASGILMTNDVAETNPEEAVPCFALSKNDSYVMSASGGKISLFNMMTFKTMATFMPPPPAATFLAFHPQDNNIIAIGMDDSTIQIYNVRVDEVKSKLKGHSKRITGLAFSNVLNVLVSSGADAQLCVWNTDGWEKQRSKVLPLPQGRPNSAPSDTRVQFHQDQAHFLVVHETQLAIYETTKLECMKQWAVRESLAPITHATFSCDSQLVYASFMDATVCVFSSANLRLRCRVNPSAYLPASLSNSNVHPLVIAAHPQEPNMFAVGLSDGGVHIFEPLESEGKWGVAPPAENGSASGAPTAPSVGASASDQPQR

T2: BRAVO-mV(N)/PLT3-mV(C) heterodimer (split mVenus donor) (Arabidopsis thaliana, UniProt Q6R053 1-323; Q52QU2 1-581)
T2 sequence (looked up) 1: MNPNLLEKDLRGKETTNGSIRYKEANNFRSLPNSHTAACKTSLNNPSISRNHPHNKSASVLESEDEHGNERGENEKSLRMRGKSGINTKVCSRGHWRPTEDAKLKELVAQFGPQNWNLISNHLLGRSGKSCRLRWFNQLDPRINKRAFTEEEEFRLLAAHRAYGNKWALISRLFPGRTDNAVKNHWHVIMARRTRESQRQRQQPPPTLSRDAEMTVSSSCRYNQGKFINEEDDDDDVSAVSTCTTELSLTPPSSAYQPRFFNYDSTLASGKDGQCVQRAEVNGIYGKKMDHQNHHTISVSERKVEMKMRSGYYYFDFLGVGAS
T2 sequence (looked up) 2: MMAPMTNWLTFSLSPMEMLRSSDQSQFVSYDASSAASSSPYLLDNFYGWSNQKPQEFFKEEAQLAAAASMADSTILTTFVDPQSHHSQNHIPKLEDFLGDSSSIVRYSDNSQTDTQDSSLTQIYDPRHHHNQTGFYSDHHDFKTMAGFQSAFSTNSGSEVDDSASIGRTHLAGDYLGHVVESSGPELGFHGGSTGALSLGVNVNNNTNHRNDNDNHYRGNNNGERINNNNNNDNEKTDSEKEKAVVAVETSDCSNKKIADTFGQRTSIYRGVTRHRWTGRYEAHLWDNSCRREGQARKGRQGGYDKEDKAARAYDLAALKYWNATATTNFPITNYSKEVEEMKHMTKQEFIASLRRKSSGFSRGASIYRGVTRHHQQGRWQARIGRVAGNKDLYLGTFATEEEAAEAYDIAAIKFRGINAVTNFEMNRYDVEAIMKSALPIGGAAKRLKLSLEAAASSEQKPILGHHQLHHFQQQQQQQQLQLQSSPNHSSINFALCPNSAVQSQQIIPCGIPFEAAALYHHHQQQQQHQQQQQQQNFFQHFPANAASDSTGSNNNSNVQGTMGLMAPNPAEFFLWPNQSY

T3: BRAVO-mV (BRASSINOSTEROIDS AT VASCULAR AND ORGANIZING CENTRE fused to mVenus) (Arabidopsis thaliana, UniProt Q6R053 1-323)
T3 sequence (looked up): T2 sequence (looked up) 1

T4: WOX5-mV(N)/PLT3-mV(C) heterodimer (split mVenus donor) (Arabidopsis thaliana, UniProt Q8H1D2 1-182; Q52QU2 1-581)
T4 sequence (looked up) 1: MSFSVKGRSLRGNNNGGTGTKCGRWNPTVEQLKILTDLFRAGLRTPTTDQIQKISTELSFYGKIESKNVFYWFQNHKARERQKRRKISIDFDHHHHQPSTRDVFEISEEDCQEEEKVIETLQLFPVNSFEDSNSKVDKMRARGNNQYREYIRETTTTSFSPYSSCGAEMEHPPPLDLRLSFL
T4 sequence (looked up) 2: T2 sequence (looked up) 2

B1: PLT3-mCh (PLETHORA 3 fused to mCherry) (natural protein, Arabidopsis thaliana, UniProt Q52QU2 1-581, looked up)
chain: T2 sequence (looked up) 2
B2: WOX5-mCh (WUSCHEL-RELATED HOMEOBOX 5 fused to mCherry) (natural protein, Arabidopsis thaliana, UniProt Q8H1D2 1-182, looked up)
chain: T4 sequence (looked up) 1
B3: TPL-mCh (TOPLESS fused to mCherry) (natural protein, Arabidopsis thaliana, UniProt Q94AI7 1-1131, looked up)
chain: T1 sequence (looked up)
B4: BRAVO-mCh (BRAVO fused to mCherry) (natural protein, Arabidopsis thaliana, UniProt Q6R053 1-323, looked up)
chain: T2 sequence (looked up) 1

Legend:
[1] = target: BRAVO-mV (BRASSINOSTEROIDS AT VASCULAR AND ORGANIZING CENTRE fused to mVenus) (Arabidopsis thaliana) (UniProt Q6R053); assay: FRET or BRET
[2] = target: WOX5-mV(N)/PLT3-mV(C) heterodimer (split mVenus donor) (Arabidopsis thaliana) (UniProt Q8H1D2); assay: split reporter
[3] = target: BES1D-mV (BES1D fused to mVenus) (Arabidopsis thaliana) (UniProt Q9LN63); assay: FRET or BRET
Chain of BES1D-mV (BES1D fused to mVenus) (Arabidopsis thaliana) (Q9LN63 whole entry, the tested form may be a part): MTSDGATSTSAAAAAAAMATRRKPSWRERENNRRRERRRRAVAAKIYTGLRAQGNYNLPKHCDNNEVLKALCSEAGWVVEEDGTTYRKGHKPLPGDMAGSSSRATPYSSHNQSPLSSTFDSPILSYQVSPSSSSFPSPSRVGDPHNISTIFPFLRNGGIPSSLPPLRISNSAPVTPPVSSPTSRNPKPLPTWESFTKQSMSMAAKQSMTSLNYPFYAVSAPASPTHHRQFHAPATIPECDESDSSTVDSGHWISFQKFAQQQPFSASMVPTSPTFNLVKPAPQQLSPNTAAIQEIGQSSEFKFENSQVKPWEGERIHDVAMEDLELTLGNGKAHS

[4] = target: T1, TPL-mV (TOPLESS fused to mVenus); assay: FRET or BRET
[5] = target: T2, BRAVO-mV(N)/PLT3-mV(C) heterodimer …; assay: split reporter
[6] = target: T3, BRAVO-mV (BRASSINOSTEROIDS AT VASCULAR …); assay: FRET or BRET
[7] = target: T4, WOX5-mV(N)/PLT3-mV(C) heterodimer …; assay: split reporter

Molecule	binding [%] (FRET-FLIM) [1]	binding [%] (BiFC-FRET) [5]	binding [%] (FRET-FLIM) [6]	binding [%] (BiFC-FRET) [7]	other results
PLT3ΔPrD-mCh (PLT3 with its prion-like domains deleted, fused to mCherry) (from UniProt Q9ZNS0 1-508) (natural protein)	11.7				
BES1D-mCh (BRI1-EMS-SUPPRESSOR 1, BES1D form, fused to mCherry) (from UniProt Q9LN63 1-335) (natural protein)	27.4				binding [%] (BiFC-FRET) [2]: 18.7%
B1					binding [%] (FRET-FLIM) [3]: 16.9%; binding [%] (FRET-FLIM) [4]: 13.5 ± 4.3%
B2		29.8 ± 10.6	22.4 ± 14.1		
B3		21.1 ± 8.3	26.7 ± 9.8	23.3 ± 8.3	
B4				36.3 ± 10.7	
